# Residue numbers refer to the chain shown, from its start. Where two headings read alike, the source gives them in different places.
# T1: 人CLDN18.1(hCLDN18.1) (human, UniProt P56856 1-261)
# T1 construct: also called human claudin-18 isoform 1; 密蛋白18.1
# T1 sequence: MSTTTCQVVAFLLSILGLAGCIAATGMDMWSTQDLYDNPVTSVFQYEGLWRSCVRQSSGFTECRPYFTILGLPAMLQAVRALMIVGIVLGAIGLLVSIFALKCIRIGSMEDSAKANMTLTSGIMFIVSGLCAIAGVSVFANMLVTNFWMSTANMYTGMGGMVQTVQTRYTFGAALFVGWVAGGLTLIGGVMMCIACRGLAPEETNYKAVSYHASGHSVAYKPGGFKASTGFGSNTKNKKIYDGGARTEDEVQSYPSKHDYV
# T2: 鼠CLDN18.1(mCLDN18.1) (mouse, UniProt P56857 1-264)
# T2 construct: also called mouse claudin-18 isoform A1.1; mCLDN18.1+cell
# T2 sequence: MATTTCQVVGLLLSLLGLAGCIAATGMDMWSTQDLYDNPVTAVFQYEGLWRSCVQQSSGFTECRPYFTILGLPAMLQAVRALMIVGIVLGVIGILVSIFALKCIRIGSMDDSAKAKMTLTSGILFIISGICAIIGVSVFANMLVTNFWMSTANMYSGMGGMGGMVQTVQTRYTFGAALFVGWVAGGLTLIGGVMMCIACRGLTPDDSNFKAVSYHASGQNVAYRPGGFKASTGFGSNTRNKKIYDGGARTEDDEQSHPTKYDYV
# T3: 鼠CLDN18.2(mCLDN18.2) (mouse, UniProt P56857 10-264)
# T3 construct: also called mouse claudin-18 isoform A2.1; mCLDN18.2+cell
# T3 chain: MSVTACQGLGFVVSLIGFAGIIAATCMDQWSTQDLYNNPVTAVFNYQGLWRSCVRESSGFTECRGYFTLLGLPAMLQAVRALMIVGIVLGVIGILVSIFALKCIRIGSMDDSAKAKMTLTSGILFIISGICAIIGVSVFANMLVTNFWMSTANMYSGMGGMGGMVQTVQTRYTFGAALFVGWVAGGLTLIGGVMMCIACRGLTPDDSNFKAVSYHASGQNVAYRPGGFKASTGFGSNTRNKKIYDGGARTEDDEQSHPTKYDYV
# B1: Ab24抗体 (antibody, human IgG1, kappa, V domains shown)
# VH: QVQLVQSGAEVKKPGSSVKVSCKASGYAFSNYLIEWVRQAPGQGLEWMGLINPGSGGTNYNEKFKGKVTITADKSTSTAYMELSSLRSEDTAVYYCARVYYGNTFAYWGQGTLVTVSS
# VL: DIVMTQSPDSLAVSLGERATINCKSSQSLLNTGNNKNYLAWYQQKPGQPPKLLIYWASTRESGVPDRFSGSGSGTDFTLTISSLQAEDVAVYYCQNDYFYPFTFGQGTKLEIKR
# B2: Ab51抗体 (antibody, human IgG1, kappa, V domains shown)
# VH: B1 VH with K67R, K74E
# VL: B1 VL
# B3: Ab36抗体 (antibody, human IgG1, kappa, V domains shown)
# VH: B1 VH with R38K, M48I, V68A
# VL: B1 VL with N22S
# B4: anti-hCLDN18.2鼠源抗体mab5b (antibody, human IgG1, kappa, V domains shown)
# VH: QVQLQQSGAELIGPGTSVKVSCKASGYAFSNYLIEWVKQRPEQGLEWIGLINPGSGGTNYNEKFKGKATLTADKSSSTAYMQLSSLTSDDSAVYFCARVYYGNSFAYWGQGTLVTVSA
# VL: DIVMTQSPSSLTVTAGEKVTMSCKSSQSLLNSGNQKNYLTWYQQKPGQPPKLLIYWASTRESGVPDRFTGSGSGTHFTLTISSVQAEDLAVYYCQNDYFYPFTFGSGTKLEKKR
# What was measured:
# 人CLDN18.2(hCLDN18.2) [1] = target: T4, 人CLDN18.2(hCLDN18.2) (human, UniProt P56856 24-261); assay: cell-based or functional assay
# 人CLDN18.2(hCLDN18.2) [2] = target: T4, 人CLDN18.2(hCLDN18.2); assay: cell-based or functional assay; remark: listed apart in the source
# 人CLDN18.1(hCLDN18.1) = target: T1, 人CLDN18.1(hCLDN18.1); assay: cell ELISA on fixed hCLDN18.1+cell
# 鼠CLDN18.1(mCLDN18.1) = target: T2, 鼠CLDN18.1(mCLDN18.1); assay: cell ELISA on fixed mCLDN18.1+cell
# 鼠CLDN18.2(mCLDN18.2) = target: T3, 鼠CLDN18.2(mCLDN18.2); assay: cell ELISA on fixed mCLDN18.2+cell
binder,measurement,setting,value
B1,"CDC EC50 (LDH release, human serum, hCLDN18.2+ target cells)",人CLDN18.2(hCLDN18.2) [1],0.255 µg/mL
same,"CDC EC50 (LDH release, human serum, hCLDN18.2+ target cells)",人CLDN18.2(hCLDN18.2) [2],1.3 µg/mL
B2,"CDC EC50 (LDH release, human serum, hCLDN18.2+ target cells)",人CLDN18.2(hCLDN18.2) [2],2.12 µg/mL
B3,"CDC EC50 (LDH release, human serum, hCLDN18.2+ target cells)",人CLDN18.2(hCLDN18.2) [2],1.75 µg/mL
B4,binding result,人CLDN18.1(hCLDN18.1),no binding (tested: 200nM)
same,binding result,鼠CLDN18.1(mCLDN18.1),no binding (tested: 200nM)
same,fold better binding (EC50) than Ref,鼠CLDN18.2(mCLDN18.2),> 4 fold
same,fold higher Emax than Ref,鼠CLDN18.2(mCLDN18.2),> 1 fold

# Reference: patent CN111110862A (dated 2020)
